Data as given in PMC5777247, “Cohesin SA2 is a sequence-independent DNA-binding protein that recognizes DNA replication and repair intermediates”.

T1: SA2 (STAG2), full length (human, UniProt Q8N3U4 1-1231)
T1 sequence: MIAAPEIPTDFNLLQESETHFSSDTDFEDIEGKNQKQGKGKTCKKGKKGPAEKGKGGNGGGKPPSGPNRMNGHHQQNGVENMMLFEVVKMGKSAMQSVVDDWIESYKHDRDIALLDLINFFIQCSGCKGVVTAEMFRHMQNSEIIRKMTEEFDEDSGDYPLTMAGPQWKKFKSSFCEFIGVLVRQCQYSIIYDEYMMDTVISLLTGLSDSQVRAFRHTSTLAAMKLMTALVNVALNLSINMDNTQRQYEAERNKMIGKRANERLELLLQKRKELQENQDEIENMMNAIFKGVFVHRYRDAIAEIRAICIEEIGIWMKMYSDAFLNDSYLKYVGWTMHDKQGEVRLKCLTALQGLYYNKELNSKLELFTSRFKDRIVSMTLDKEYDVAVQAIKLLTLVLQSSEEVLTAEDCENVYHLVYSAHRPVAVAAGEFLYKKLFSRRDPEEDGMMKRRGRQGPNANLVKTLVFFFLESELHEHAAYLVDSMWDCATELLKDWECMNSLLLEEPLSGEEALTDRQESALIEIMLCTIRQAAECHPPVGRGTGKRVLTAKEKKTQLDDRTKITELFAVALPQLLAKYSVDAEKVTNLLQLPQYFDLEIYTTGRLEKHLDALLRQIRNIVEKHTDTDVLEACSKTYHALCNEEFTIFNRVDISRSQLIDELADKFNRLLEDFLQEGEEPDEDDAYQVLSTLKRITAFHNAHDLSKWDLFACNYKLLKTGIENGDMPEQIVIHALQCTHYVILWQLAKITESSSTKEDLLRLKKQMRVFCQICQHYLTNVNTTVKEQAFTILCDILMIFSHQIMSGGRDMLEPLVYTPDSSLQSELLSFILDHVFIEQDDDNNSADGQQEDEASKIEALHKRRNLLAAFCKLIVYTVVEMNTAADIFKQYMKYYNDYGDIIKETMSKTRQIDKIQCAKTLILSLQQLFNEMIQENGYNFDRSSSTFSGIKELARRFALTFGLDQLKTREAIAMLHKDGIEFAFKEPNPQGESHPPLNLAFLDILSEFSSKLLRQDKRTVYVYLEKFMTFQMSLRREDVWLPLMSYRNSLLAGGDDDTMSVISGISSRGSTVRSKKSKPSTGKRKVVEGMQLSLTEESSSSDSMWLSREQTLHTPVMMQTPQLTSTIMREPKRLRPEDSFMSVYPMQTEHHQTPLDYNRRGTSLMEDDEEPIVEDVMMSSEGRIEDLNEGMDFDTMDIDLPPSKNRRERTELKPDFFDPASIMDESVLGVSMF

T2: SA1 (STAG1), full length (UniProt Q8WVM7 1-1258)
T2 sequence: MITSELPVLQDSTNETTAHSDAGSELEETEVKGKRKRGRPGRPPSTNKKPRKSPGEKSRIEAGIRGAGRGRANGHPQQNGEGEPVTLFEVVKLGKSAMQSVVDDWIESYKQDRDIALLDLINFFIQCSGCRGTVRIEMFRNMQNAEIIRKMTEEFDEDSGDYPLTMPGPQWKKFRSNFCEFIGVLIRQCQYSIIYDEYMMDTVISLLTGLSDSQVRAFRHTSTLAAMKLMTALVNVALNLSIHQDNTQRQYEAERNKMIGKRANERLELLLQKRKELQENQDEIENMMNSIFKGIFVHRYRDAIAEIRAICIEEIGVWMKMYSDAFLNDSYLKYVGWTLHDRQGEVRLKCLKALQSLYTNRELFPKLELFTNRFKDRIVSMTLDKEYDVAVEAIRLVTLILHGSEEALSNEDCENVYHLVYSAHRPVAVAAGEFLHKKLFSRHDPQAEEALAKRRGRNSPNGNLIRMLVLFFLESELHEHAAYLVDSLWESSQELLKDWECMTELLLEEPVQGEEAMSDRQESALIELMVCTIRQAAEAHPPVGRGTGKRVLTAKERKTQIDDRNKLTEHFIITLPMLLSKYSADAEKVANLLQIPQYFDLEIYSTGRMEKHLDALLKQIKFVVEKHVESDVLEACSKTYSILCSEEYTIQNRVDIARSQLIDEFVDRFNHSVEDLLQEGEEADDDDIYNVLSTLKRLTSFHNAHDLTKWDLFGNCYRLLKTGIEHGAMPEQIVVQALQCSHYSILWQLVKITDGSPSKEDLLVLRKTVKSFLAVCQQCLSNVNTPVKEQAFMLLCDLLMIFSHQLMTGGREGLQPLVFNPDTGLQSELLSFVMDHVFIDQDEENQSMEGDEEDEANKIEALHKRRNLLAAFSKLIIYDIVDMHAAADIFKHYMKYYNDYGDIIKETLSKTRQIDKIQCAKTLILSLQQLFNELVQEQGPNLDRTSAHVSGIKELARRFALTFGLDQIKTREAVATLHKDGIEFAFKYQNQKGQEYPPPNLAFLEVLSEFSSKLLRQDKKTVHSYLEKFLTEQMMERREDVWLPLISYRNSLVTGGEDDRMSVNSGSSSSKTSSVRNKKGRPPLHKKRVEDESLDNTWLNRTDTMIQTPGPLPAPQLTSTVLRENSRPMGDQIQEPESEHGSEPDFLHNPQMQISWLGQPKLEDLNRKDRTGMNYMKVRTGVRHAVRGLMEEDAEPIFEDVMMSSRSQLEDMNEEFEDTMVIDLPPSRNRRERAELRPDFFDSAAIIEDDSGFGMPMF

T3: SA2 1-1051 (human, UniProt Q8N3U4 1-1051)
T3 sequence: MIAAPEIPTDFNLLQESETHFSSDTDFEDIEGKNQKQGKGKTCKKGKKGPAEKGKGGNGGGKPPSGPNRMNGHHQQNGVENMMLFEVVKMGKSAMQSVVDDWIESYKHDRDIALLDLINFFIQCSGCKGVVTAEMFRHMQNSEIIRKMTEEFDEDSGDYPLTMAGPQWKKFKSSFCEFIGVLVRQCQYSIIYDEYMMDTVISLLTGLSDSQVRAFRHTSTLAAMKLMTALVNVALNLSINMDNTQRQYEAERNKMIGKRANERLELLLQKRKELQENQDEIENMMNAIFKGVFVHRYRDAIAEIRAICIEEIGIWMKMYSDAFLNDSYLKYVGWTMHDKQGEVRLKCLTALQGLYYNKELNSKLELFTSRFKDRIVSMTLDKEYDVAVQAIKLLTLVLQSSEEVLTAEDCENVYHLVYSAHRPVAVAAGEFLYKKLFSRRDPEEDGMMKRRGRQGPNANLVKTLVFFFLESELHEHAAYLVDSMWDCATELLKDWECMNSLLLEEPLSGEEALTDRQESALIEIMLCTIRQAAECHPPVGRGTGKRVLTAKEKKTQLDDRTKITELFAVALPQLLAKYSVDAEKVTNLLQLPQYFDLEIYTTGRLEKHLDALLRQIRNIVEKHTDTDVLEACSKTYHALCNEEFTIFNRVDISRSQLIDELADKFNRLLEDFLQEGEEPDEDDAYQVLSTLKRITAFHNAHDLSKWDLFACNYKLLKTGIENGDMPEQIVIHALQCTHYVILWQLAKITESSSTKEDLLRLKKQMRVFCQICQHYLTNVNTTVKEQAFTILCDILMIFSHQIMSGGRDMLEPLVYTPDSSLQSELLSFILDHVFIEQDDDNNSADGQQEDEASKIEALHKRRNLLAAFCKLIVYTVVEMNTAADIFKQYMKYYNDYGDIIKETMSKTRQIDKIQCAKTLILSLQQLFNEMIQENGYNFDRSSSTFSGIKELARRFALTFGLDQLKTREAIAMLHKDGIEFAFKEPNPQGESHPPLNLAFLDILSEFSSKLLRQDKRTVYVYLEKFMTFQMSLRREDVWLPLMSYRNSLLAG


Key:
[1] = target: T1, SA2 (STAG2), full length; experiment: fluorescence anisotropy; no detectable binding (ND); Anisotropy: 20 mM Hepes pH 7.5, 0.1 mM MgCl2, 0.5 mM DTT, 100 mM KCl, 1 nM DNA; AFM: 20 mM Hepes pH 7.5, 100 mM KCl, 0.1 mM MgCl2, room temperature, 20 min; conditions: protein: recombinant; tags: 6xHis; label: 5' Alexa 488 on strand 1; blunt
[2] = target: T1, SA2 (STAG2), full length; experiment: fluorescence anisotropy; Anisotropy: 20 mM Hepes pH 7.5, 0.1 mM MgCl2, 0.5 mM DTT, 100 mM KCl, 1 nM DNA; AFM: 20 mM Hepes pH 7.5, 100 mM KCl, 0.1 mM MgCl2, room temperature, 20 min; conditions: protein: recombinant; tags: 6xHis; label: Alexa 488
[3] = target: T2, SA1 (STAG1), full length; experiment: as above; conditions: protein: recombinant; label: Alexa 488
[4] = target: T3, SA2 1-1051; experiment: as above; conditions: protein: recombinant; tags: 6xHis; label: Alexa 488

Binder	binding result [1]	Kd [2]	Kd [3]	Kd [4]
ds25 (Alexa ss25 + ss-25-com) (dsDNA) DNA 1: TGTCGCATAGTGTAGTCGGTCTTGT DNA 2: ACAAGACCGACTACACTATGCGACA	no binding			
ss66 (Alexa ss66) (ssDNA) DNA: CTGGATCCGTACAGTGTAAGGGTGAGTGGTTGGGTGTGTGGGTGTTGATGTAGAACAAGAATTCGA		41 ± 5.3 nM	36.5 ± 0.2 nM	28 nM
